From FireProtDB (doi:10.1021/bi9928694)

Conditions: Homo sapiens, reversible: yes, whole UniProt chain shown
[1] = pH 2.7, Thermal, DSC, glycine-HCl 0.05 M
[2] = pH 4, 10 °C, GdnHCl, CD, glycine-HCl 40 mM

B1: Lysozyme C wild type, P61626 (protein)
chain: MKALIVLGLVLLSVTVQGKVFERCELARTLKRLGMDGYRGISLANWMCLAKWESGYNTRATNYNAGDRSTDYGIFQINSRYWCNDGKTPGAVNACHLSCSALLQDNIADAVACAKRVVRDPQGIRAWVAWRNRCQNRDVRQYVQGCGV
For B1, the Tm [1] was 64.9 °C, the “heat capacity change of unfolding” value [1] was 1.58 kcal/mol/K and the “unfolding enthalpy (calorimetric)” value [1] was 114 kcal/mol. The “denaturant midpoint (higher = more stable)” value [2] was 3.96 M and the unfolding free energy [2] was 14.3 kcal/mol.
